Experimental data published in paper PMC9080447 (Biochemistry, 2021).

Columns and labels:
Experiment in all cases: native MS
[1] = target: His6-tagged Salmonella FrlB E224Q/H240N (Salmonella)
[2] = target: wild-type Salmonella FrlB deglycase (Salmonella)
native MS = target: the molecule itself

Molecule: His6-tagged Salmonella FrlB E224Q/H240N (enzyme)
- stoichiometry N [1]: 2

Molecule: wild-type Salmonella FrlB deglycase (enzyme)
- stoichiometry N [2]: 2

B1: His6-tagged Salmonella YidA (enzyme, UniProt A0A0F6B8Z9 1-281, looked up)
chain: MAIKLIAIDMDGTLLLPDHTISPAVKNAIAAAREKGVNVVLTTGRPYAGVHSYLKELHMEQPGDYCITYNGALVQKAGDGSTVAQTALSYDDYRYLEKLSREVGSHFHALDRNTLYTANRDISYYTVHESYVATIPLVFCEAEKMDPNTQFLKVMMIDEPAVLDRAIARIPAEVKEKYTVLKSAPYFLEILDKRVNKGTGVKSLVEALGIKPEEVMAIGDQENDIAMIEYAGMGVAMDNAIPSVKEVANFVTKSNLEDGVAWAIEKFVLNPDHSSGHFPAR
- stoichiometry N (native MS): 2
